Literature values as cited in patent publication US20100311759A1, “ANTIPARASITIC AGENT FOR FISH AND METHOD OF CONTROLLING PROLIFERATION OF FISH PARASITES” (NIPPON SUISAN KAISHA, LTD., priority 2007, published 2010).

System: White spot disease
Conditions: 40 mg per 1 kg of fish body weight orally per day, 28-day experimental period

B1: lactoferrin: marketed as an additive for fisheries; thought to increase non-specific biophylactic ability of host fish (protein, UniProt P24627 20-708, looked up)
Lactotransferrin: APRKNVRWCTISQPEWFKCRRWQWRMKKLGAPSITCVRRAFALECIRAIAEKKADAVTLDGGMVFEAGRDPYKLRPVAAEIYGTKESPQTHYYAVAVVKKGSNFQLDQLQGRKSCHTGLGRSAGWIIPMGILRPYLSWTESLEPLQGAVAKFFSASCVPCIDRQAYPNLCQLCKGEGENQCACSSREPYFGYSGAFKCLQDGAGDVAFVKETTVFENLPEKADRDQYELLCLNNSRAPVDAFKECHLAQVPSHAVVARSVDGKEDLIWKLLSKAQEKFGKNKSRSFQLFGSPPGQRDLLFKDSALGFLRIPSKVDSALYLGSRYLTTLKNLRETAEEVKARYTRVVWCAVGPEEQKKCQQWSQQSGQNVTCATASTTDDCIVLVLKGEADALNLDGGYIYTAGKCGLVPVLAENRKSSKHSSLDCVLRPTEGYLAVAVVKKANEGLTWNSLKDKKSCHTAVDRTAGWNIPMGLIVNQTGSCAFDEFFSQSCAPGADPKSRLCALCAGDDQGLDKCVPNSKEKYYGYTGAFRCLAEDVGDVAFVKNDTVWENTNGESTADWAKNLNREDFRLLCLDGTRKPVTEAQSCHLAVAPNHAVVSRSDRAAHVKQVLLHQQALFGKNGKNCPDKFCLFKSETKNLLFNDNTECLAKLGGRPTYEEYLGTEYVTAIANLKKCSTSPLLEACAFLTR
Q: With B1 as the molecule, how does the infection read?
A: no infection was observed
